Assay results as given in publication PMC2120550.

Molecular target: lysin from the pink abalone (H. corrugata) (Haliotis corrugata (pink abalone))
Test: cross-linking

Sequence of lysin from the pink abalone (H. corrugata) (natural protein) (P19448 19-155 limits assumed): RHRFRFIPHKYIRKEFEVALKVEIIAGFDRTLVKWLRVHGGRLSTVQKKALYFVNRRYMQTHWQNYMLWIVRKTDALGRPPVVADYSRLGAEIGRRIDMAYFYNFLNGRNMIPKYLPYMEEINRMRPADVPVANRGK

stoichiometry N: 2
Substance: lysin from the pink abalone (H. corrugata) (natural protein)
